Reference: paper PMC3543869

Target: T1, recombinant rat apolipoprotein E (rat), P02650
T1 chain: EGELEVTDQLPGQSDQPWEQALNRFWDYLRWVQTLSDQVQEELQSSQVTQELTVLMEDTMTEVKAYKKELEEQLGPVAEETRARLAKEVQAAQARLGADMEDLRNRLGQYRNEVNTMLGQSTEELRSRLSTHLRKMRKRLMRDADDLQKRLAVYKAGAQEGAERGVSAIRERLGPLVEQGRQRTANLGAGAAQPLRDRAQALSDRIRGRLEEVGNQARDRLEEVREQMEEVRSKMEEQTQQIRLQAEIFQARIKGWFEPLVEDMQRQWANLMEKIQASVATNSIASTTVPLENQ
Assay: SEC
Conditions: remark: other sources report otherwise

stoichiometry N: 4
B1: recombinant rat apolipoprotein E, P02650 19-312 (natural protein)
chain: EGELEVTDQLPGQSDQPWEQALNRFWDYLRWVQTLSDQVQEELQSSQVTQELTVLMEDTMTEVKAYKKELEEQLGPVAEETRARLAKEVQAAQARLGADMEDLRNRLGQYRNEVNTMLGQSTEELRSRLSTHLRKMRKRLMRDADDLQKRLAVYKAGAQEGAERGVSAIRERLGPLVEQGRQRTANLGAGAAQPLRDRAQALSDRIRGRLEEVGNQARDRLEEVREQMEEVRSKMEEQTQQIRLQAEIFQARIKGWFEPLVEDMQRQWANLMEKIQASVATNSIASTTVPLENQ
